Drawing on patent US20090220501A1 (published 2009), this text covers Kd for 1 molecule.

This assay concerns the target T1, human CD19 (human, UniProt P15391 20-556).
T1 construct: whole, on cells; also called CD19 B-cell antigen
T1 sequence (looked up): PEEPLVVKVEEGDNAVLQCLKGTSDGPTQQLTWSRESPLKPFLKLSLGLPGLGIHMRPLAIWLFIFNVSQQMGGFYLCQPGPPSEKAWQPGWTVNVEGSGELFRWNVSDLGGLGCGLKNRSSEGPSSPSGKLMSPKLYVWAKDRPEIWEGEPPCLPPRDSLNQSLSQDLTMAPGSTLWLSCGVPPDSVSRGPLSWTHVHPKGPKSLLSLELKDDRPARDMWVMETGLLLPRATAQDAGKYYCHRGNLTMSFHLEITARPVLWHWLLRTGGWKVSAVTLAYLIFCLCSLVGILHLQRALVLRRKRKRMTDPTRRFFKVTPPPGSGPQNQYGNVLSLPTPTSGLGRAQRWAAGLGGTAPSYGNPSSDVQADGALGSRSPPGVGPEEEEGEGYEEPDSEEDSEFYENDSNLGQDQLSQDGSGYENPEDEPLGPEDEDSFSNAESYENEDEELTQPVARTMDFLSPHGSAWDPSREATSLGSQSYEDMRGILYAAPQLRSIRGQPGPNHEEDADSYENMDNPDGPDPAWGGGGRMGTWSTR
Nature of the assay: flow cytometry on CD19-positive cells with varying antibody concentrations and a fluorescently labeled secondary antibody (Benedict method); mean of 6 experiments.

B1: humanized (chimeric) anti-CD19 IgG1 antibody of the disclosure, 4G7chim (antibody, V domains shown)
VH: QVQLQQSGPELIKPGASVKMSCKASGYTFTSYVMHWVKQKPGQGLEWIGYINPYNDGTKYNEKFKGKATLTSDKSSSTAYMELSSLTSEDSAVYYCARGTYYYGSRVFDYWGQGTTLTVTV
VL: DIVMTQAAPSIPVTPGESVSISCRSSKSLLNSNGNTYLYWFLQRPGQSPQLLIYRMSNLASGVPDRFSGSGSGTAFTLRISRVEAEDVGVYYCMQHLEYPLTFGAGTKLEIRR
notes: also called anti-CD19 antibody of the present disclosure; CD19 chimeric antibody
As a reminder, the Kd is the equilibrium constant for the complex coming apart. A high value points to weaker binding. B1 showed a Kd of about 5.5 nM.
